Results taken from the supplement of paper PMC10567573.

B1: LPCAT4 (parent)
chain: HDPLYGKLFSTYLRPPHTSRGTSQ

Variants of: B1
Assay: protein stability index of a GFP-peptide fusion (GPS, HEK-293T) (PSI 1-6); higher = more stable
Settings: c terminus: a fixed tail appended
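Note: lentivirally expressed fusions sorted by FACS into six bins by GFP to DsRed ratio, PSI derived from sequencing read proportions per bin multiplied by bin number.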

Compared with HDPGYGKLFSTYLRPPHTSRGTSQ, HDPIYGKLFSTYLRPPHTSRGTSQ is lower in protein stability index: 3.3 for the first, 2.04 for the second.

First: HDPCYGKLFSTYLRPPHTSRGTSQ
Second: HDPTYGKLFSTYLRPPHTSRGTSQ
The protein stability index of the first is higher: 3.28 for the first, 2.87 for the second.

Compared with HDPEYGKLFSTYLRPPHTSRGTSQ, HDPMYGKLFSTYLRPPHTSRGTSQ is lower in protein stability index: 3.46 for the first, 3.29 for the second.

Going from HDPVYGKLFSTYLRPPHTSRGTSQ to HDPRYGKLFSTYLRPPHTSRGTSQ, the protein stability index falls from 2.66 to 1.58.

Going from HDPDYGKLFSTYLRPPHTSRGTSQ to HDPAYGKLFSTYLRPPHTSRGTSQ, the protein stability index falls from 3.74 to 2.32.

Compared with HDPSYGKLFSTYLRPPHTSRGTSQ, HDPNYGKLFSTYLRPPHTSRGTSQ is lower in protein stability index: 3.35 for the first, 2.28 for the second.

First: HDPYYGKLFSTYLRPPHTSRGTSQ
Second: HDPKYGKLFSTYLRPPHTSRGTSQ
The protein stability index of the first is higher: 2.69 for the first, 1.9 for the second.

First: HDPQYGKLFSTYLRPPHTSRGTSQ
Second: HDPPYGKLFSTYLRPPHTSRGTSQ
The protein stability index of the first is lower: 2.03 for the first, 3.28 for the second.

Going from HDPWYGKLFSTYLRPPHTSRGTSQ to HDPHYGKLFSTYLRPPHTSRGTSQ, the protein stability index rises from 2.98 to 3.22.

Going from HDPFYGKLFSTYLRPPHTSRGTSQ to HDPLGGKLFSTYLRPPHTSRGTSQ, the protein stability index falls from 3.22 to 2.76.

Going from HDPLHGKLFSTYLRPPHTSRGTSQ to HDPLNGKLFSTYLRPPHTSRGTSQ, the protein stability index falls from 2.98 to 2.85.

Going from HDPLVGKLFSTYLRPPHTSRGTSQ to HDPLLGKLFSTYLRPPHTSRGTSQ, the protein stability index falls from 3.3 to 3.05.

First: HDPLDGKLFSTYLRPPHTSRGTSQ
Second: HDPLFGKLFSTYLRPPHTSRGTSQ
The protein stability index of the first is higher: 3.92 for the first, 2.47 for the second.

Compared with HDPLPGKLFSTYLRPPHTSRGTSQ, HDPLMGKLFSTYLRPPHTSRGTSQ is lower in protein stability index: 3.65 for the first, 3.11 for the second.

First: HDPLQGKLFSTYLRPPHTSRGTSQ
Second: HDPLCGKLFSTYLRPPHTSRGTSQ
The protein stability index of the first is higher: 3.82 for the first, 3.69 for the second.

Compared with HDPLKGKLFSTYLRPPHTSRGTSQ, HDPLTGKLFSTYLRPPHTSRGTSQ is lower in protein stability index: 3.43 for the first, 3.36 for the second.

Going from HDPLAGKLFSTYLRPPHTSRGTSQ to HDPLRGKLFSTYLRPPHTSRGTSQ, the protein stability index rises from 2.94 to 3.18.

Going from HDPLSGKLFSTYLRPPHTSRGTSQ to HDPLEGKLFSTYLRPPHTSRGTSQ, the protein stability index rises from 3.21 to 3.67.

Compared with HDPLIGKLFSTYLRPPHTSRGTSQ, HDPLWGKLFSTYLRPPHTSRGTSQ is lower in protein stability index: 2.69 for the first, 2.11 for the second.

Compared with HDTLYGKLFSTYLRPPHTSRGTSQ, HDVLYGKLFSTYLRPPHTSRGTSQ is higher in protein stability index: 2.7 for the first, 2.76 for the second.

First: HDQLYGKLFSTYLRPPHTSRGTSQ
Second: HDALYGKLFSTYLRPPHTSRGTSQ
The protein stability index of the first is lower: 2.38 for the first, 2.5 for the second.

Going from HDHLYGKLFSTYLRPPHTSRGTSQ to HDLLYGKLFSTYLRPPHTSRGTSQ, the protein stability index falls from 2.98 to 2.25.

Compared with HDELYGKLFSTYLRPPHTSRGTSQ, HDKLYGKLFSTYLRPPHTSRGTSQ is lower in protein stability index: 3.14 for the first, 2.54 for the second.

First: HDCLYGKLFSTYLRPPHTSRGTSQ
Second: HDSLYGKLFSTYLRPPHTSRGTSQ
The protein stability index of the first is lower: 2.17 for the first, 2.3 for the second.

First: HDDLYGKLFSTYLRPPHTSRGTSQ
Second: HDWLYGKLFSTYLRPPHTSRGTSQ
The protein stability index of the first is higher: 3.02 for the first, 2.03 for the second.

Going from HDMLYGKLFSTYLRPPHTSRGTSQ to HDILYGKLFSTYLRPPHTSRGTSQ, the protein stability index rises from 2.27 to 2.29.

First: HDFLYGKLFSTYLRPPHTSRGTSQ
Second: HDRLYGKLFSTYLRPPHTSRGTSQ
The protein stability index of the first is lower: 2.12 for the first, 2.55 for the second.

Compared with HDNLYGKLFSTYLRPPHTSRGTSQ, HDGLYGKLFSTYLRPPHTSRGTSQ is lower in protein stability index: 2.44 for the first, 2.35 for the second.

Compared with HDYLYGKLFSTYLRPPHTSRGTSQ, HDPLYQKLFSTYLRPPHTSRGTSQ is lower in protein stability index: 2.55 for the first, 2.35 for the second.

Compared with HDPLYCKLFSTYLRPPHTSRGTSQ, HDPLYEKLFSTYLRPPHTSRGTSQ is higher in protein stability index: 2.17 for the first, 3.19 for the second.

Compared with HDPLYAKLFSTYLRPPHTSRGTSQ, HDPLYLKLFSTYLRPPHTSRGTSQ is higher in protein stability index: 1.77 for the first, 2.18 for the second.

First: HDPLYVKLFSTYLRPPHTSRGTSQ
Second: HDPLYHKLFSTYLRPPHTSRGTSQ
The protein stability index of the first is higher: 2.56 for the first, 1.88 for the second.

First: HDPLYNKLFSTYLRPPHTSRGTSQ
Second: HDPLYDKLFSTYLRPPHTSRGTSQ
The protein stability index of the first is lower: 2.08 for the first, 3.61 for the second.

Compared with HDPLYWKLFSTYLRPPHTSRGTSQ, HDPLYTKLFSTYLRPPHTSRGTSQ is lower in protein stability index: 2.06 for the first, 1.86 for the second.

Going from HDPLYKKLFSTYLRPPHTSRGTSQ to HDPLYRKLFSTYLRPPHTSRGTSQ, the protein stability index rises from 1.73 to 1.76.

Compared with HDPLYMKLFSTYLRPPHTSRGTSQ, HDPLYFKLFSTYLRPPHTSRGTSQ is lower in protein stability index: 1.7 for the first, 1.58 for the second.

Compared with HDPLYPKLFSTYLRPPHTSRGTSQ, HDPLYIKLFSTYLRPPHTSRGTSQ is lower in protein stability index: 3.46 for the first, 1.6 for the second.

First: HDPLYSKLFSTYLRPPHTSRGTSQ
Second: HDPLYYKLFSTYLRPPHTSRGTSQ
The protein stability index of the first is lower: 1.27 for the first, 2.42 for the second.

First: HKPLYGKLFSTYLRPPHTSRGTSQ
Second: HYPLYGKLFSTYLRPPHTSRGTSQ
The protein stability index of the first is higher: 2.63 for the first, 2.62 for the second.

Going from HNPLYGKLFSTYLRPPHTSRGTSQ to HVPLYGKLFSTYLRPPHTSRGTSQ, the protein stability index falls from 2.1 to 1.85.

Going from HSPLYGKLFSTYLRPPHTSRGTSQ to HTPLYGKLFSTYLRPPHTSRGTSQ, the protein stability index falls from 2.5 to 1.98.

First: HQPLYGKLFSTYLRPPHTSRGTSQ
Second: HPPLYGKLFSTYLRPPHTSRGTSQ
The protein stability index of the first is lower: 2.44 for the first, 2.8 for the second.

First: HMPLYGKLFSTYLRPPHTSRGTSQ
Second: HRPLYGKLFSTYLRPPHTSRGTSQ
The protein stability index of the first is lower: 1.91 for the first, 2.63 for the second.

Compared with HWPLYGKLFSTYLRPPHTSRGTSQ, HLPLYGKLFSTYLRPPHTSRGTSQ is lower in protein stability index: 2.86 for the first, 2.34 for the second.

Going from HDPLYGELFSTYLRPPHTSRGTSQ to HDPLYGGLFSTYLRPPHTSRGTSQ, the protein stability index falls from 3.29 to 3.25.

Compared with HDPLYGFLFSTYLRPPHTSRGTSQ, HDPLYGALFSTYLRPPHTSRGTSQ is higher in protein stability index: 1.94 for the first, 2.55 for the second.

Going from HDPLYGCLFSTYLRPPHTSRGTSQ to HDPLYGDLFSTYLRPPHTSRGTSQ, the protein stability index rises from 2.04 to 3.28.
